Source: PMC10197130, “Disulfide-Bond-Induced Structural Frustration and Dynamic Disorder in a Peroxiredoxin from MAS NMR” (Journal of the American Chemical Society, 2023)

Experiments:
[1] = molecular target: Tsa1 S78D mutant (yeast); assay: SEC; size-exclusion chromatography of the S78D mutant (Figure S2C)
[2] = molecular target: the molecule itself; assay: methyl-detected diffusion-ordered NMR spectroscopy (DOSY); solution, deuterated Ile/Leu/Val methyl-labeled sample, series from 25 to 60 °C; temperatures above the midpoint at ca. 315 K
[3] = molecular target: the molecule itself; assay: SEC-MALS; Superdex Increase 200 10/300 GL, phosphate buffer (PBS or 50 mM KPi KCl pH 7.4), RT (ca. 297 K); decamer also reinjected alone, with TCEP and after H2O2 treatment

stoichiometry N [1] | Molecule | stoichiometry N [2] | stoichiometry N [3]
2 | Tsa1 S78D mutant (enzyme) |  | 
 | Tsa1 wild type (2-Cys peroxiredoxin from yeast) (enzyme, UniProt P34760 1-196, looked up, disulfide bond between Cys47 (CP) of one subunit and Cys170 (CR) of another subunit in the oxidized state (as purified or after H2O2); free thiols in the reduced state (TCEP or DTT), Tsa1, 2-Cys peroxiredoxin from yeast, wild type, plasmid pET19b-Tsa1 corresponding to UniProt entry P34760, codon-optimized; No removal of the His tag is described; Decamer of five dimers (ca. 216 kDa) at ambient temperature; also called Tsa1^WT; Tsa1^ox; source: E. coli BL21(DE3), purified (Ni2+-HisTrap, gel filtration on Superdex S200 increase); copies: 10) MVAQVQKQAPTFKKTAVVDGVFDEVSLDKYKGKYVVLAFIPLAFTFVCPTEIIAFSEAAKKFEEQGAQVLFASTDSEYSLLAWTNIPRKEGGLGPINIPLLADTNHSLSRDYGVLIEEEGVALRGLFIIDPKGVIRHITINDLPVGRNVDEALRLVEAFQWTDKNGTVLPCNWTPGAATIKPTVEDSKEYFEAANK | 2 | 10
